{
  "source": "patent US20220275047A1",
  "about": "(published 2022)",
  "molecular_target": "T1, MUC5AC peptide on HLA-DPA1*01:03 / HLA-DPB1*04:01 (human)",
  "T1 peptide": "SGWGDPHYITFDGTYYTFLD",
  "test": "multimer staining",
  "data": [
    {"binder": "05-MUC5AC4922-4941 (TCR, V domains shown) Valpha: QTVTQSQPEMSVQEAETVTLSCTYDTSESNYYLFWYKQPPSRQMILVIRQEAYKQQNATENRFSVNFQKAAKSFSLKISDSQLGDTAMYFCAFMKRAETSGSRLTFGEGTQLTVNP Vbeta: NAGVTQTPKFRVLKTGQSMTLLCAQDMNHEYMYWYRQDPGMGLRLIHYSVGEGTTAKGEVPDGYNVSRLKKQNFLLGLESAAPSQTSVYFCASSYWPTRETQYFGPGTRLLVL", "values": [
      {"measurement": "binding result", "result": "recognises"}
    ]}
  ]
}
